The target of one assay is T1, 4H355-AA.
T1 chain: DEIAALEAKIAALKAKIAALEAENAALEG
Kind of assay: two-hybrid library CCmax.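 Also: natural log of median RNA to DNA barcode read ratio; higher means stronger binding.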 Conditions: mean of both orientations.

The target of a further assay is 4H_GCN4. The assay is described as follows: two-hybrid library CCmax.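 Also: natural log of median RNA to DNA barcode read ratio; higher means stronger binding.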
The target in a further assay is T2, 4H58-AA.
T2 chain: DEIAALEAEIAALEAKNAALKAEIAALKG
The assay is described as follows: two-hybrid library CCmax.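 Also: natural log of median RNA to DNA barcode read ratio; higher means stronger binding.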 As to conditions: mean of both orientations.

For the next assay, the target named is T3, 4H486-AA.
T3 chain: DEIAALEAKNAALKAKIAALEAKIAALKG
Kind of assay: two-hybrid library CCmax.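 Also: natural log of median RNA to DNA barcode read ratio; higher means stronger binding.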 As to conditions: mean of both orientations.

A further assay has as its target T4, 4H_BCR.
T4 chain: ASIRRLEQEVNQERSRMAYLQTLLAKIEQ
Kind of assay: two-hybrid library CCmax.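 Also: natural log of median RNA to DNA barcode read ratio; higher means stronger binding.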 As to conditions: mean of both orientations.

In the next assay the target is GCN2_T. The assay is described as follows: two-hybrid library CCmax.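 Also: natural log of median RNA to DNA barcode read ratio; higher means stronger binding.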
The target of another assay is T5, 4H465-AA.
T5 chain: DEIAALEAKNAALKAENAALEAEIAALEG
The assay is described as follows: two-hybrid library CCmax. Conditions: mean of both orientations.

The target of another assay is T6, 4H895-AA.
T6 chain: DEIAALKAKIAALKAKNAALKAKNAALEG
Kind of assay: two-hybrid library CCmax. Conditions: mean of both orientations.

In the next assay the target is T7, 4H2898-AA.
T7 chain: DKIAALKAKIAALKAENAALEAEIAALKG
Kind of assay: two-hybrid library CCmax. As to conditions: mean of both orientations.

In another assay the target is T8, 4H3651-AA.
T8 chain: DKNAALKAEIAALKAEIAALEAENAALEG
Kind of assay: two-hybrid library CCmax. As to conditions: mean of both orientations.

The next assay has as its target T9, 4H2721-AA.
T9 chain: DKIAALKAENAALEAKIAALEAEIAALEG
The assay is described as follows: two-hybrid library CCmax. As to conditions: mean of both orientations.

The next assay addresses T10, 4H2600-AA.
T10 chain: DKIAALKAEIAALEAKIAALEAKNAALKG
Kind of assay: two-hybrid library CCmax.

A further assay deals with T11, 4H_APH.
T11 chain: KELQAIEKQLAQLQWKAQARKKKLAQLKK
The assay is described as follows: two-hybrid library CCmax.

Another assay deals with T12, 4H3705-AA.
T12 chain: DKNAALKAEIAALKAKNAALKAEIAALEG
The assay is described as follows: two-hybrid library CCmax. Conditions: mean of both orientations.

The next assay addresses T13, 4H3020-AA.
T13 chain: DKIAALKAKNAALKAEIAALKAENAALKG
The assay is described as follows: two-hybrid library CCmax. Conditions: mean of both orientations.

In the next assay the target is T14, 4H3782-AA.
T14 chain: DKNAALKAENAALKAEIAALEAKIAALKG
The assay is described as follows: two-hybrid library CCmax. Conditions: mean of both orientations.

Another assay concerns the target T15, 4H2750-AA.
T15 chain: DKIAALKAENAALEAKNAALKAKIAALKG
Kind of assay: two-hybrid library CCmax. As to conditions: mean of both orientations.

The target of a further assay is T16, 4H535-AA.
T16 chain: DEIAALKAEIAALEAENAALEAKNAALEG
The assay is described as follows: two-hybrid library CCmax. As to conditions: mean of both orientations.

The target of the next assay is T17, 4H3365-AA.
T17 chain: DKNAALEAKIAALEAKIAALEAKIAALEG
The assay is described as follows: two-hybrid library CCmax. As to conditions: mean of both orientations.

A further assay deals with T18, 4H2438-bN.
T18 chain: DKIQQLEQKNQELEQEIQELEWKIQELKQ
The assay is described as follows: two-hybrid library CCNG1.

The next assay concerns the target T19, 4H3057-bN.
T19 chain: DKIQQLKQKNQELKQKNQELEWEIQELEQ
The assay is described as follows: two-hybrid library CCNG1.

For the next assay, the target named is T20, 4H2839-bN.
T20 chain: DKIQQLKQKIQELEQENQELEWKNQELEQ
Kind of assay: two-hybrid library CCNG1.

In a further assay the target is T21, 4H2503-bN.
T21 chain: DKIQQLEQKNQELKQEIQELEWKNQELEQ
The assay is described as follows: two-hybrid library CCNG1.

The target of another assay is T22, 4H3277-bN.
T22 chain: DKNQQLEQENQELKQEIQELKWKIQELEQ
The assay is described as follows: two-hybrid library CCNG1.

The target in another assay is T23, 4H2717-bN.
T23 chain: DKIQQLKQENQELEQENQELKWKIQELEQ
Kind of assay: two-hybrid library CCNG1.

In another assay the target is T24, 4H2915-bN.
T24 chain: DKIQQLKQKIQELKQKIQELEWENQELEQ
The assay is described as follows: two-hybrid library CCNG1.

For another assay, the target named is T25, 4H741-bN.
T25 chain: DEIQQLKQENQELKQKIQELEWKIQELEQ
The assay is described as follows: two-hybrid library CCNG1.

For the next assay, the target named is T26, 4H2692-bN.
T26 chain: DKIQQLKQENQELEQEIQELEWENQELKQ
Kind of assay: two-hybrid library CCNG1.

A further assay concerns the target T27, 4H3926-bH.
T27 chain: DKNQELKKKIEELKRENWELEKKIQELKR
Kind of assay: two-hybrid library CCNG1.

In a further assay the target is T28, 4H40-bN.
T28 chain: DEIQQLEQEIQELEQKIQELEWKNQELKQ
The assay is described as follows: two-hybrid library CCNG1.

The next assay has as its target T29, 4H319-bN.
T29 chain: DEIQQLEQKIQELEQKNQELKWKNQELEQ
Kind of assay: two-hybrid library CCNG1.

For a further assay, the target named is T30, 4H477-bN.
T30 chain: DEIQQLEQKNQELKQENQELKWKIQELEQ
Kind of assay: two-hybrid library CCNG1.

In the next assay the target is T31, 4H492-bN.
T31 chain: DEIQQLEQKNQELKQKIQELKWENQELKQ
The assay is described as follows: two-hybrid library CCNG1.

The next assay has as its target T32, 4H348-bN.
T32 chain: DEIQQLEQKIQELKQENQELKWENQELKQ
Kind of assay: two-hybrid library CCNG1.

A further assay deals with T33, 4H2588-bN.
T33 chain: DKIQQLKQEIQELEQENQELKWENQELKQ
Kind of assay: two-hybrid library CCNG1.

The target in the next assay is T34, 4H2473-bN.
T34 chain: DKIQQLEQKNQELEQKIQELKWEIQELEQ
The assay is described as follows: two-hybrid library CCNG1.

The text below walks through data of article PMC10397247.

Sequence of 4H_GCN4 (chain, as listed by the source): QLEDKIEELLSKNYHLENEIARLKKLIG

For the molecule DKIAALKAEIAALEAKIAALEAKNAALKG [4H2600-AA], the interaction score with 4H355-AA was 2.12; with 4H_GCN4 it was -1.63; with 4H58-AA, 0.179; in the assay with 4H486-AA, 0.497; with 4H_BCR, -1.4; in the assay with GCN2_T, -1.38. Besides, the interaction score is -1.72 with 4H465-AA; -0.393 with 4H895-AA; 0.0245 in the assay with 4H2898-AA; 0.646 with 4H3651-AA; -0.793 in the assay with 4H2721-AA; 1.58 with 4H2600-AA. Besides, the interaction score was -1.47 in the assay with 4H_APH; 0.21 with 4H3705-AA; -0.911 with 4H3020-AA; -1.12 with 4H3782-AA; -1.65 with 4H2750-AA; -0.657 in the assay with 4H535-AA. In addition, in the assay with 4H3365-AA, the interaction score was -0.236.

For DKIQQLEQKNQELEQEIQELEWKIQELKQ [4H2438-bN], the interaction score with 4H2438-bN was 1.09; with 4H3057-bN, 2.19; with 4H2839-bN it was -1.05; in the assay with 4H2503-bN, 0.452; in the assay with 4H3277-bN, -0.843; with 4H2717-bN, -0.613. The interaction score was 2 with 4H2915-bN; -0.278 with 4H741-bN; -1.41 in the assay with 4H2692-bN; -4.14 in the assay with 4H3926-bH; -0.693 with 4H40-bN; -0.63 with 4H319-bN. The interaction score with 4H477-bN was 0.509; in the assay with 4H492-bN, 0.204; with 4H348-bN, -1.05; with 4H2588-bN, -0.403; with 4H2473-bN, 1.05.
